Laboratory results as given in patent US8133978 (GlaxoSmithKline, dated 2012).

Key:
[1] = biological target: T1, Human interleukin-18 (recombinant human IL-18) (human, UniProt Q14116 37-193); assay: ELISA, antibody on plate, human IL-18 captured, detected by 16D10; room temperature, blocking buffer
T1 construct: also called hIL-18
T1 sequence: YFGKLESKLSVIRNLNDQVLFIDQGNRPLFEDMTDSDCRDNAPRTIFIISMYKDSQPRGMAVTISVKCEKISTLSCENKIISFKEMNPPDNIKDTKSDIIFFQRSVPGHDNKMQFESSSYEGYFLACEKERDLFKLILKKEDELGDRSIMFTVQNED
Protocol: (§1) ELISA was carried out with the three Humanised H1 variants; H1L1, H1L2 and H1L3 to assess binding to human IL-18 at room temperature and at 37° C. in both human serum and in block solution (PBS 0.05% TWEEN with 1% BSA (w/v)). The Humanised antibody variants were immobilised on Nunc Maxisorp 96-well plates at 2.5 µg/ml. Capture of 5 ng/ml of recombinant human IL-18 was carried out either at room temperature or 37° C. in human serum or block solution. Anti-IL-18 mouse monoclonal antibody 16D10 was added. The bound mouse antibody was detected using anti-mouse kappa peroxidase conjugate (Serotec MCA 1291P). Representative EC50 values generated from the study data are illustrated in Table 9.

[2] = biological target: T1, Human interleukin-18 (recombinant human …); assay: cell-based or functional assay
[3] = biological target: T1, Human interleukin-18 (recombinant human …); assay: SPR, Biacore T100, Protein A capture, 25 C, mean n = 4
Protocol: (§2) The methodology was basically the same as for the method used in Example 4a above; Protein A was immobilised on a CM5 chip at densities of between 2000-6000 RU's by primary amine coupling. Runs were carried out in HBS-EP (Biacore™). The anti-IL-18 antibodies were captured to densities of between 100-500 RUs, human IL-18 was passed over this captured surface at concentrations between 16-0.0625 nM, with 0 nM concentration (i.e., a buffer only injection of captured antibody) used for double referencing. Regeneration after each injection of IL-18 was by mild acidic elution using two injections of 10 mM glycine, pH1.5. […] The binding curves obtained were analysed using the analysis software inherent to the T100 machine using the 1:1 model of binding. Runs were carried out at the temperatures indicated.
These experiments were carried out as described above. Table 6 details the kinetic parameters obtained. […] H1L2 has a better on-rate (ka) than H1L1.

Rhesus IL-18 = biological target: T2, Rhesus IL-18 (rhesus (rhesus/cynomolgus)); assay: SPR, Biacore 3000, antibody captured on Protein A, 25 C
T2 construct: also called Rhesus/Cynomolgus IL-18; rhesus/cynomolgus IL-18
Protocol: (§3) Biacore™ kinetic analysis of the humanised 2C10 antibodies was carried out on a Biacore™ 3000 instrument using Protein A capture of the antibodies in HBS-EP buffer (Biacore™). Briefly, Protein A was immobilised on a CM5 chip by primary amine coupling, using manufacturers recommended protocol, to densities around 2000-4000 resonance units (RU's). Humanised antibody was then passed over the Protein A surface and captured to levels of around 200-500 RU's, after a period of stabilisation, IL-18 (human or Rhesus) was passed over the captured antibody surface at defined concentrations and binding sensorgrams were obtained. […] All curves were double referenced against a buffer injection instead of IL-18 and the data was fitted to the 1:1 binding model using the global fit parameters in BiaEval 4.1. Off-rate ranking experiments were set up using the same Protein A capture method, however, only a single concentration of IL-18 was used (10 nM). Whilst the data was fitted using the same binding model as the kinetic analysis, since only one concentration of analyte was used on the off-rate is reported, this value is useful for ranking rather than giving an exact kinetic measurement and was used as a way of selecting which antibodies would be further investigated.
Based upon these observations selected antibodies were investigated in greater detail for binding to human and Rhesus IL-18 at 37° C. The data shown in Table 4b for human IL-18 is the mean (and standard deviation) of six separate determinations.

[4] = biological target: T1, Human interleukin-18 (recombinant human …); assay: as above
Protocol: as §3, with “investigated. […]” for “investigated.”

[5] = biological target: T1, Human interleukin-18 (recombinant human …); assay: ELISA, antibody on plate, human IL-18 captured, detected by 16D10; 37 C, blocking buffer
Protocol: as §1

[6] = biological target: T1, Human interleukin-18 (recombinant human …); assay: ELISA, human IL-18 captured by 16D10, antibody titrated
Protocol: ELISA with all nine humanised variants was carried out at least 6 times using various batches of purified antibody preparation. FIGS. 4A-4C show representative data from one experiment which generated the EC50 value ranking illustrated in Table 7. Human IL-18 was immobilized on Nunc Maxisorp 96-well plates using 2.5 µg/ml of 16D10 (non-neutralising mouse monoclonal antibody) to capture 5 ng/ml of recombinant human IL-18. Anti-IL-18 humanised antibodies were added at various dilutions. Bound humanised antibodies were detected using anti-human IgG Fc specific peroxidase conjugate (Sigma A0170).

[7] = biological target: T1, Human interleukin-18 (recombinant human …); assay: SPR, Biacore T100, antibody captured on Protein A, 25 C
Protocol: as §2
This experiment was carried out using the above method at various temperatures. […] Table 5 details the kinetic values used to create these figures.

EC50 [1]: 3.55 ng/mL
% change vs 2C10 (IC50, KG-1 bioassay) [2]: 61.5%
Kd [3]: 0.0163 nM
Kd (Rhesus IL-18): 0.108 nM
Kd [4]: 0.0303 nM
EC50 [5]: 3.4 ng/mL
EC50 [6]: 11 ng/mL
Kd [7]: 0.0125 nM
B1: H1L2 humanised anti-IL-18 antibody (antibody, human IgG1, kappa, V domains shown)
VH: QVQLVQSGAEVKKPGASVKVSCKVSGEISTGYYFHWVRQAPGKGLEWMGRIDPEDDSTKYAERFKDRVTMTEDTSTDTAYMELSSLRSEDTAVYYCTTWRIYRDSSGRPFYVMDAWGQGTLVTVSS
VL: DIQMTQSPSSVSASVGDRVTITCLASEDIYTYLTWYQQKPGKAPKLLIYGANKLQDGVPSRFSGSGSGTDYTLTISSLQPEDFATYYCLQGSKFPLTFGQGTKLEIKR
notes: Human IgG1 / kappa
